Laboratory results reported in patent US20210187106A1 (AstraZeneca / MedImmune, published 2021).

B1: human Leukemia Inhibitory Factor (LIF), expression source not stated (ligand)
chain: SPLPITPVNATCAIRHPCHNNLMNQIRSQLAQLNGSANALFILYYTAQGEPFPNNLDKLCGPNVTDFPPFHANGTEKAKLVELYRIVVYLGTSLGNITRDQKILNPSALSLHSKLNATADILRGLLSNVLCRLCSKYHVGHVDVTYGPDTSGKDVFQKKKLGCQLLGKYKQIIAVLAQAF
notes: also called hLIF; human LIF
B2: h5D8 (humanized 5D8, H2L2 clone) (antibody, V domains shown)
VH: QVQLQESGGGLVKPGGSLRLSCAASGFTFSHAWMHWVRQAPGKGLEWVGQIKAKSDDYATYYAESVKGRFTISRDDSKNTLYLQMNSLKTEDTAVYYCTCWEWDLDFWGQGTMVTVSS
VL: DIVMTQTPLSSPVTLGQPASISCRSSQSLLDSDGHTYLNWLQQRPGQPPRLLIYSVSNLESGVPDRFSGSGAGTDFTLKISRVEAEDVGVYYCMQATHAPPYTFGQGTKLEIK
notes: Humanized IgG tested as a bivalent antibody; Only VH and VL are tied to h5D8 by name; also called G (H2L2); H5D8-1 IgG

How the values were obtained:
recombinant human gp130 = molecular target: T1, recombinant human gp130 (human, UniProt P40189 23-619, limits assumed); assay: ELISA, LIF pre-incubated with B09 and added to a plate coated with recombinant human gp130; the antibody part of the complex detected with peroxidase anti-rat IgG
T1 sequence (looked up): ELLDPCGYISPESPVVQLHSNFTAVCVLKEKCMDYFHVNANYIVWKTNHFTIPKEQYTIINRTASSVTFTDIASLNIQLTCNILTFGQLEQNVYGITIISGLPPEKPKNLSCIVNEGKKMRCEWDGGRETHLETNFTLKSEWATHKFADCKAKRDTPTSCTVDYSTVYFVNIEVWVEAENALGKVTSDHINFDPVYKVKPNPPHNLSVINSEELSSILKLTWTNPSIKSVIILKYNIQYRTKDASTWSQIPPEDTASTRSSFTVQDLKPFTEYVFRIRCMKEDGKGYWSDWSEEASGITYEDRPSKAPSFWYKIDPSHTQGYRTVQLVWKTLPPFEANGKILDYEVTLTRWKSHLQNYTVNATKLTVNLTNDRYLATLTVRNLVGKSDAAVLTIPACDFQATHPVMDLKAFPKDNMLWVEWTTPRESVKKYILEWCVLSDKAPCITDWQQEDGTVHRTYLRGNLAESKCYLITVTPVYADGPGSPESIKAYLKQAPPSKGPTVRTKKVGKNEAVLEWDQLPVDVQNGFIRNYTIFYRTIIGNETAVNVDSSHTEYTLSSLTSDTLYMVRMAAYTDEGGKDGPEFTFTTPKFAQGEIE

[1] = molecular target: B1; assay: cell-based or functional assay
[2] = molecular target: T2, recombinant human LIF receptor (hLIFR) (human, UniProt P42702 45-833, limits assumed); assay: Octet RED96 control experiment, h5D8 captured on AHC biosensors
T2 sequence (looked up): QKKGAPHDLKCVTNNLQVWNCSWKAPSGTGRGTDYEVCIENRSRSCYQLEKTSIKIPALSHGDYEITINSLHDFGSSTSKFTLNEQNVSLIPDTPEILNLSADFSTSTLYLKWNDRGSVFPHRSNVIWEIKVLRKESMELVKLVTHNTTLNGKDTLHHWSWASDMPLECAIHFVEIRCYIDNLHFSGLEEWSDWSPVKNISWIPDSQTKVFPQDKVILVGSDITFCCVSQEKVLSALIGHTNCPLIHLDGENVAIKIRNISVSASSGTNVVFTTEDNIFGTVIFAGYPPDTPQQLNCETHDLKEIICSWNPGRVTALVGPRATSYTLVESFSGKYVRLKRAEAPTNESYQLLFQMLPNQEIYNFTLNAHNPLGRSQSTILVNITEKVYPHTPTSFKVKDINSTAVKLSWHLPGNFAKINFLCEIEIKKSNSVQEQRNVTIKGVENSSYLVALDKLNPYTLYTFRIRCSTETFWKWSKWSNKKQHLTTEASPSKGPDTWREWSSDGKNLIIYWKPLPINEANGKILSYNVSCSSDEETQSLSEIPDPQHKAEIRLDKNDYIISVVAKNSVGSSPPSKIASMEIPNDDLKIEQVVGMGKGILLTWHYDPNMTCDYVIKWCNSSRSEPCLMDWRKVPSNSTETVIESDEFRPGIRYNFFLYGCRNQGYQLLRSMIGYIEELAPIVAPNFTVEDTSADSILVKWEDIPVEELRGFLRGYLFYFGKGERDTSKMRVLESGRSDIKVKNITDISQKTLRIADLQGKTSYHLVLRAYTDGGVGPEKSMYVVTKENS
Text: Subsequently, the biosensors were dipped in different concentrations of LIFR.

human IL-6 (E. coli) = molecular target: T3, human IL-6 (E. coli) (human, UniProt P05231 30-212, limits assumed); assay: BLI (Octet), h5D8 amine-coupled to AR2G biosensors, cytokine as analyte; table legend: ND = no binding
T3 construct: also called huIL-6 (E. coli)
T3 sequence (P05231 30-212 limits assumed): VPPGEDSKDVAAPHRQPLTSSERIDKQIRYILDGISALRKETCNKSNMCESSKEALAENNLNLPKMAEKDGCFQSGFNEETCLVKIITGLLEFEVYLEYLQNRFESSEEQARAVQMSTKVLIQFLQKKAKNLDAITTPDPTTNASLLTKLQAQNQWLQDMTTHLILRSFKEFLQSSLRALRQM
Experimental: Kinetics experiments were then performed with the following Dip and Read steps at 30° C., 1000rpm: vi) 60 seconds Baseline in 1× kinetics buffer; vii) 180 seconds Association of appropriate serial dilutions of a cytokine in 1× kinetics buffer; viii) 300 seconds Dissociation in 1× kinetics buffer; ix) Three Regeneration/Neutralization cycles alternating between 10 mM glycine pH 2.0 and 1× kinetics buffer respectively (5 seconds in each for 3 cycles). Following regeneration, the biosensors were reused for subsequent binding analyses.

Binder | binding result (recombinant human gp130) | IC50 for biological inhibition (pSTAT3, MSD assay) under serum starved conditions in U-251 cells [1] [picomolar] | binding result [2] | binding result (human IL-6 (E. coli))
B1 | binds |  |  | 
B2 |  | 490 | no binding | no binding
